The values that follow come from article PMC10786891, “Massively parallel profiling of RNA-targeting CRISPR-Cas13d”.

Numbering of substitutions follows the chain as printed. Names may count otherwise.

One may read the Kd as a measure of binding affinity in units of concentration. The low end stands for higher affinity, the high end for lower affinity.

B1: target 1 MT 5'PFS CUA 3'PFS UAG (mixed)
RNA 1: CACCCGUGCAAAAAUGCAGGGGUCUAAAACUGAGCGGAUAACCUCUCUAUGG
RNA 2: GGGAAUGGAUCCACAUCUACGAAUUCCUACCAUAGAGAGGUUAUCCGCUCAUAGAGAUCGGAAGAGCACACGU
B2: target 1 MT 5'PFS GUA 3'PFS UCU (mixed)
RNA 1: B1 RNA 1
RNA 2: B1 RNA 2 with C27G, A53C, G54U
B3: target 1 MT 5'PFS GUG 3'PFS AGA (mixed)
RNA 1: B1 RNA 1
RNA 2: B1 RNA 2 with C27G, A29G, U52A, A53G, G54A
B4: target 1 MT 5'PFS CUA 3'PFS AGG (mixed)
RNA 1: B1 RNA 1
RNA 2: B1 RNA 2 with U52A, A53G
B5: target 1 MT 5'PFS GCA 3'PFS CAG (mixed)
RNA 1: B1 RNA 1
RNA 2: B1 RNA 2 with C27G, U28C, U52C
B6: target 1 MT 5'PFS CAG 3'PFS ACG (mixed)
RNA 1: B1 RNA 1
RNA 2: B1 RNA 2 with U28A, A29G, U52A, A53C
B7: target 1 U3C,C4G (mixed)
RNA 1: B1 RNA 1
RNA 2: B1 RNA 2 with C27G, C48G, U49C, U52C, A53C
B8: target 1 MT 5'PFS GUA 3'PFS UCG (mixed)
RNA 1: B1 RNA 1
RNA 2: B1 RNA 2 with C27G, A53C
B9: target 1 MT 5'PFS ACA 3'PFS AUG (mixed)
RNA 1: B1 RNA 1
RNA 2: B1 RNA 2 with C27A, U28C, U52A, A53U
B10: target 1 MT 5'PFS GUA 3'PFS UCA (mixed)
RNA 1: B1 RNA 1
RNA 2: B1 RNA 2 with C27G, A53C, G54A
B11: target 1 MT 5'PFS CAG 3'PFS ACC (mixed)
RNA 1: B1 RNA 1
RNA 2: B1 RNA 2 with U28A, A29G, U52A, A53C, G54C
B12: target 1 MT 5'PFS GCA 3'PFS CAA (mixed)
RNA 1: B1 RNA 1
RNA 2: B1 RNA 2 with C27G, U28C, U52C, G54A
B13: target 1 MT 5'PFS AGG 3'PFS ACG (mixed)
RNA 1: B1 RNA 1
RNA 2: B1 RNA 2 with C27A, U28G, A29G, U52A, A53C
B14: target 1 MT 5'PFS CUA 3'PFS AGU (mixed)
RNA 1: B1 RNA 1
RNA 2: B1 RNA 2 with U52A, A53G, G54U
B15: target 1 C7A,G12A (mixed)
RNA 1: B1 RNA 1
RNA 2: B1 RNA 2 with C27G, G40A, C45A, U52C, A53C
B16: target 1 MT 5'PFS GUA 3'PFS UCC (mixed)
RNA 1: B1 RNA 1
RNA 2: B1 RNA 2 with C27G, A53C, G54C
B17: target 1 MT 5'PFS ACA 3'PFS AUA (mixed)
RNA 1: B1 RNA 1
RNA 2: B1 RNA 2 with C27A, U28C, U52A, A53U, G54A
B18: target 1 MT 5'PFS CAG 3'PFS ACA (mixed)
RNA 1: B1 RNA 1
RNA 2: B1 RNA 2 with U28A, A29G, U52A, A53C, G54A

In the data set the target is T1, EsCas13d, nuclease-dead (Eubacterium siraeum, UniProt B0MS50, R295A;H300A;R849A;H854A).
T1 sequence: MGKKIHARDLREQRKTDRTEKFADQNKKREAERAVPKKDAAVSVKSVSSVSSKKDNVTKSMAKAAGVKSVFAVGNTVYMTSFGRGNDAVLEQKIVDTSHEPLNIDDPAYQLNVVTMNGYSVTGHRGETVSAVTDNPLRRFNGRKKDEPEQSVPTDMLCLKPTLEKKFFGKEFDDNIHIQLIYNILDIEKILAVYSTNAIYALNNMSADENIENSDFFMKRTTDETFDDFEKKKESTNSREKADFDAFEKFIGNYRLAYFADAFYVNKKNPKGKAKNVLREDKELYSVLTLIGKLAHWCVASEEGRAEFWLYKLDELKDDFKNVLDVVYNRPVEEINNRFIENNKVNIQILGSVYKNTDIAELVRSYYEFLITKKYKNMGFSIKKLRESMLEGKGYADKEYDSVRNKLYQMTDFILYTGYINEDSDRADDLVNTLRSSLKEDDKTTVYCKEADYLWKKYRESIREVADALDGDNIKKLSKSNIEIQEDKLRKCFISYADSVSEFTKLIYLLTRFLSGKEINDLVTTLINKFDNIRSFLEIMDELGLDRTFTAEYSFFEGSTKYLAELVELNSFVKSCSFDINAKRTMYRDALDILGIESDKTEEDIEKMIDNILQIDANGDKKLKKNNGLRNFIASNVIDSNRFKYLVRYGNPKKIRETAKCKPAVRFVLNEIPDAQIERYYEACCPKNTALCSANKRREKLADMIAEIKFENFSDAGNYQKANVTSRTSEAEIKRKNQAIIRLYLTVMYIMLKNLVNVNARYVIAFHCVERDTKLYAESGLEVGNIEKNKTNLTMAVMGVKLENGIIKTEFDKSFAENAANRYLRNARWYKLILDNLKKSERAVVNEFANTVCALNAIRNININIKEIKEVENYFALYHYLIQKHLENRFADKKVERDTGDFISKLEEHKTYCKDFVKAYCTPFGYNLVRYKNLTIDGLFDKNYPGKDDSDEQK
In words: crRNA (strand 1, pre-loaded); Mg2+; 40 mM Tris-HCl pH 7.5, 150 mM NaCl, 6 mM MgCl2, 1 mM DTT, 0.1% Tween-20, 0.2 mg/ml BSA; 25 C; 10 min per concentration, then washed. The note with it: tags: His6-TwinStrep-SUMO cleaved; N-terminal SNAP kept (SNAP-Surface 488); label: 3' end held by stalled T7 RNA polymerase.
On to B1, for which the Kd was found to be 4.9 ± 0.9 nM.
The value for B2 was 8.3 ± 0.95 nM; that for B3 was 15.9 ± 1 nM; that for B4 was 41 ± 19 nM.
B5 came in with a Kd of roughly 36.5 nM.
Take B6: the Kd worked out at 19.5 ± 5.15 nM.
For the molecule B7, the Kd was 11.4 ± 0.6 nM.
The molecule B8 displayed a Kd of 8.56 ± 0.55 nM.
As for B9, the figure is 39.5 ± 14.5 nM; as for B10, 12.3 ± 0.95 nM.
B11 showed a Kd of 24 ± 11.5 nM.
For B12, the Kd was roughly 32.5 nM.
As for B13, the figure is 41 ± 10 nM.
As to B14, binding was put at a Kd of 12.2 ± 3.65 nM.
The value for B15 was 9.6 ± 0.8 nM; that for B16 was 7.33 ± 0.61 nM.
B17: the Kd was found to be 12.2 ± 3.9 nM.
Take B18: the affinity, expressed as Kd, was 31 ± 15.5 nM.
